Results on one substance are retold here after US12258384B2, “Fusion albumin nanoparticle and application thereof” (Jiangnan University, priority 2019, dated 2025).

The nature of data set [1]: Loading of paclitaxel with recombinant fusion protein (pH response self-assembly), drug loading rate. The note with it: 1 mg/ml protein, mixed at pH 5.5 with 10 mg/mL paclitaxel solution, then pH 7.4. Format: physicochemical. The method, then: Albumin fusion protein powder freeze-dried by a freeze dryer was dissolved in a PBS buffer solution to prepare a 1 mg/ml solution, the pH was adjusted to 5.5 with a 1 mM HCl solution, after a 10 mg/mL paclitaxel solution was added, the pH was adjusted to 7.4 with a 1 mM NaOH solution, centrifugation was performed at 10000 rpm for 20 minutes, an obtained precipitate was uniformly mixed with ultrapure water and then centrifuged at 1000 rpm for 20 minutes, and the steps above were repeated 3 times to obtain a paclitaxel-loaded fusion protein nanoparticle.
A final drug loading rate was directly affected by a mixing ratio of albumin to a drug (for example, paclitaxel): Fusion albumin powder freeze-dried by a freeze dryer was dissolved in a PBS buffer solution to prepare a 1 mg/ml solution, the pH was adjusted to 5.5 with a 1 mM HCl solution, after a drug solution with a concentration of 5 mg/ml, 8 mg/ml, 12 mg/mL and 15 mg/ml was separately added, the pH was adjusted to 7.4 with a 1 mM NaOH solution, centrifugation was performed at 10000 rpm for 20 minutes, an obtained precipitate was uniformly mixed with ultrapure water and then centrifuged at 1000 rpm for 20 minutes, and the steps above were repeated 3 times to obtain a paclitaxel-loaded fusion protein nanoparticle. […]

Data set [2] in a line: Loading of docetaxel with recombinant fusion protein, drug loading rate. Format: physicochemical. The note with it: 1 mg/mL protein, mixed at pH 5.5 with 10 mg/ml docetaxel solution, then pH 7.4. As for the experimental part: Albumin fusion protein powder freeze-dried by a freeze dryer was dissolved in a PBS buffer solution to prepare a 1 mg/mL solution, the pH was adjusted to 5.5 with a 1 mM HCl solution, after a 10 mg/ml docetaxel solution was added, the pH was adjusted to 7.4 with a 1 mM NaOH solution, centrifugation was performed at 10000 rpm for 20 minutes, an obtained precipitate was uniformly mixed with ultrapure water and then centrifuged at 1000 rpm for 20 minutes, and the steps above were repeated 3 times to obtain a fusion protein nanoparticle.

Consider “RH: albumin fusion protein 3RGD-HSA, without His fusion”, for which, in data set [1], the “drug loading rate (paclitaxel)” value amounted to 6.38%. The “drug loading rate (docetaxel)” value in data set [2] was determined as 7.08%.
